The numbers were not newly measured in publication PMC5472698, which cites them from elsewhere.

Usually Kd stands for the concentration at which binding is half-saturated.

The data set has as its target CD21 (Homo sapiens) (UniProt P20023).

Sequence of gp350/220 (P03200 whole entry): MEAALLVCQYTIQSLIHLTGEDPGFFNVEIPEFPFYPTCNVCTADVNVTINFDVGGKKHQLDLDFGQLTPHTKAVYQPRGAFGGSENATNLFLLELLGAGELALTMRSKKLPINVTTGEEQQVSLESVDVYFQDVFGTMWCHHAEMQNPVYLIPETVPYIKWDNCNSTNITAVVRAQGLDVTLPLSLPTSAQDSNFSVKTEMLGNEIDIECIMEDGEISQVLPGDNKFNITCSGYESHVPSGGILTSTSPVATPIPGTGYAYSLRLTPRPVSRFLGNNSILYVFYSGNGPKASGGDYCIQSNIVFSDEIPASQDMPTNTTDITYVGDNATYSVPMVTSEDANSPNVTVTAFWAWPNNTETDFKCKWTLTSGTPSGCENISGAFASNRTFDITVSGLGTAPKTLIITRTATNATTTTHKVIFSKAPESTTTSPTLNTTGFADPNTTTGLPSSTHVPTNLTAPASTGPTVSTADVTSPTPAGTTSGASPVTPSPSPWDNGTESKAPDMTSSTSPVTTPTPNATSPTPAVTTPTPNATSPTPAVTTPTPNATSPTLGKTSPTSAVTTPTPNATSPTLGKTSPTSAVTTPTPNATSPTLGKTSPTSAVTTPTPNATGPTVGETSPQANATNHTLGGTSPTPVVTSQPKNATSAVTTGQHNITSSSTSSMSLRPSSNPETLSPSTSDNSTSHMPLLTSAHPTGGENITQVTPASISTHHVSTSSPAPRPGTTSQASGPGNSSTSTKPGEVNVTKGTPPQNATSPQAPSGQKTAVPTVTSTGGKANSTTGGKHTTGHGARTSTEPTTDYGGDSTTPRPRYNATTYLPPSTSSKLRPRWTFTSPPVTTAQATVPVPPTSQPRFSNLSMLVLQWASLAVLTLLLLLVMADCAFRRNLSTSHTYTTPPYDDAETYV
Sequence of CD21 (Homo sapiens) (P20023 21-1033): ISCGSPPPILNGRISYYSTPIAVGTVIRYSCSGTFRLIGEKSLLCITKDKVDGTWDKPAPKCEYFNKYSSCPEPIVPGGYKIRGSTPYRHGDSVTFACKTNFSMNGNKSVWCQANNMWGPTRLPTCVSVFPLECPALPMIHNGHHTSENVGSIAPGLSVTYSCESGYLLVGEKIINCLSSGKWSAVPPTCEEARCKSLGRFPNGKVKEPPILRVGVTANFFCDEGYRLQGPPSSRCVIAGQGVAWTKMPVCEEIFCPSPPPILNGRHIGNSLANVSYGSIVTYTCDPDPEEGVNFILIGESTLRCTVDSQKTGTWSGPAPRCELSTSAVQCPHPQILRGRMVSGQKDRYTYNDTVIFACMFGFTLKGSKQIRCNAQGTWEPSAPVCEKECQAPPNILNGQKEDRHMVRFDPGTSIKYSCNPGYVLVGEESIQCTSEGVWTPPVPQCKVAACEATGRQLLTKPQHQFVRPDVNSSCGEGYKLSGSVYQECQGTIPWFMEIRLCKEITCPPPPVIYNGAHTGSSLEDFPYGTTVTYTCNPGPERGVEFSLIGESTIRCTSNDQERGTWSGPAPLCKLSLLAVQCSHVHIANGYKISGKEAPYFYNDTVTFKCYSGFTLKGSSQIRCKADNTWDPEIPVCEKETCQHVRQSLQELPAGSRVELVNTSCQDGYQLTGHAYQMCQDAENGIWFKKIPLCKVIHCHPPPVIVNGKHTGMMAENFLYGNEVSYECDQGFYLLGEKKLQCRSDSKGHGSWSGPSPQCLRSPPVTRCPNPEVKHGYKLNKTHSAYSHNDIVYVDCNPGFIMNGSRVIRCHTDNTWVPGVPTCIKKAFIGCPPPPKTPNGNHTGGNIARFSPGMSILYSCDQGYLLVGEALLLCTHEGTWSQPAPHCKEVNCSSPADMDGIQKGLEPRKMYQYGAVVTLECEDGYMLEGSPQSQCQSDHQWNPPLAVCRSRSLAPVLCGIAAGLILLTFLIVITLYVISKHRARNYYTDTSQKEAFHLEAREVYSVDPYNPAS

As to gp350/220 (from UniProt P03200), the Kd is 12 nM.
